Experimental data published in publication PMC3078909.

Assays:
Cys15 [1] = target: Cys15 (UniProt position 14, AANWKCNGSQQ); test: chemical modification (MMTS inactivation followed by enzyme activity); details: not stated for the pKa determination (MMTS inactivation and activity assays were at 25°C); 100 mM TEA, 10 mM EDTA adjusted to the desired pH; free enzyme, 5 µg/mL, 80 µM MMTS
Cys15 [2] = target: T1, Cys15 (UniProt position 15, AANWKCNGSES); test: as above; details: not stated for the pKa determination (MMTS inactivation and activity assays were at 25°C), 100 mM TEA, 10 mM EDTA adjusted to the desired pH, free enzyme, 5 µg/mL
Cys14 [3] = test: as above; details: not stated for the pKa determination (MMTS inactivation and activity assays were at 25°C); 100 mM TEA, 10 mM EDTA adjusted to the desired pH; free enzyme, 5 µg/mL, 80 µM MMTS
Cys14 [4] = target: T2, Cys14 (UniProt position 14, AANWKCNGSQQ); test: chemical modification (as in ref 24; this article says its new determinations were made 'under the same conditions'); details: free enzyme; cited from earlier work
Cys14 [5] = target: T2, Cys14; test: chemical modification (MMTS inactivation followed by enzyme activity); details: not stated for the pKa determination (MMTS inactivation and activity assays were at 25°C); 100 mM TEA, 10 mM EDTA adjusted to the desired pH; free enzyme, 5 µg/mL, 80 µM MMTS
Cys15 [6] = target: T1, Cys15; test: chemical modification (as in ref 24; this article says its new determinations were made 'under the same conditions'); details: free enzyme; cited from earlier work
[7] = 10 and 80 µM MMTS (mean of both)

Substance: Chimera TcTIM 1 (region 1 of TcTIM, regions 2-8 of TbTIM) (Trypanosoma cruzi / Trypanosoma brucei chimera; region 1 of TbTIM replaced by the TcTIM sequence (13 differing residues plus a one-residue N-terminal length difference; individual substitutions not listed in the text))
- pKa (Cys15 [1]): 9.49±0.08

Substance: Chimera TcTIM 1-3 (regions 1-3 of TcTIM, regions 4-8 of TbTIM) (Trypanosoma cruzi / Trypanosoma brucei chimera; regions 4-8 of TcTIM replaced by the TbTIM sequence (individual substitutions not listed in the text))
- pKa (Cys15 [2]; [7]): 9.86±0.05

Substance: Chimera TcTIM 1-3, 5-8 (TcTIM with region 4 of TbTIM) (Trypanosoma cruzi / Trypanosoma brucei chimera; region 4 of TcTIM replaced by the TbTIM sequence (5 substitutions, not listed individually in the text))
- pKa (Cys15 [2]; [7]): 9.59±0.06

Substance: Chimera TcTIM 1-4 (regions 1-4 of TcTIM, regions 5-8 of TbTIM) (Trypanosoma cruzi / Trypanosoma brucei chimera; regions 5-8 of TcTIM replaced by the TbTIM sequence (individual substitutions not listed in the text; Figure 1 is image only))
- pKa (Cys15 [2]; 10 µM MMTS): 9.17±0.12

Substance: Chimera TcTIM 2,3, 5-8 (TcTIM with regions 1 and 4 of TbTIM) (Trypanosoma cruzi / Trypanosoma brucei chimera; regions 1 and 4 of TcTIM replaced by the TbTIM sequence (13 + 5 differing residues, not listed individually in the text))
- pKa (Cys14 [3]): 10.61±0.06

Substance: Triosephosphate isomerase (TbTIM), wild type (Trypanosoma brucei)
- pKa (Cys14 [4]): 10.08±0.03
- pKa (Cys14 [5]): 10.53±0.06

Substance: Triosephosphate isomerase (TcTIM), wild type (Trypanosoma cruzi)
- pKa (Cys15 [6]): 9.28±0.07
- pKa (Cys15 [2]; 10 µM MMTS): 9.27±0.16
